Results as given in patent publication US6361968.

Key:
c-Jun (unmodified) = c-Jun (unmodified) (UniProt P05412); assay: thermal melt of the mixture (FIG. 4)
[1] = target: bHLH MAX (unmodified Max) (UniProt P61244); assay: homodimer, dimerization study of FIG. 9
[2] = target: c-Myc bHLH protein (murine) (UniProt P01108); assay: heterodimer with c-Myc, dimerization study of FIG. 9
Chain of c-Myc bHLH protein (murine) (P01108 368-454 limits assumed, form in doubt): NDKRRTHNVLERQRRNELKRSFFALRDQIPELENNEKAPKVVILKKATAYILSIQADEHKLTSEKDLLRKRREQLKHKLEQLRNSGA

Chain of c-Jun (unmodified) (P05412 241-331 limits assumed): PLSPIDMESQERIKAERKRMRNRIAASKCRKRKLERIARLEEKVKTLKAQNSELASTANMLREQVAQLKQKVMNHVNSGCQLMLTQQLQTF

Tm (c-Jun (unmodified)) [°C] | Kd [1] [µM] | Kd [2] [µM] | Substance
53 |  |  | 0heptad-Fos (c-Fos with the basic region deleted) (designed binder)
 | 6 | 0.03 | bHLH MAX (unmodified Max) (from UniProt P61244 23-113)
